# Experimental data as given in patent publication US10239925B2, “Peptides and combination of peptides for use in immunotherapy against ovarian cancer and other cancers” (IMMATICS BIOTECHNOLOGIES GMBH, priority 2015, dated 2019).
# Molecular target: HLA-A*02:01 (Homo sapiens, UniProt P04439, D140Y/D185E/D98H/E176V/E277Q/G131W/G231S/I119V/I121R/I166T/I218V/L300P/L318F/N151K/N90K/P208A/P217A/Q86G/Q94H/R138H/R169H/T345S)
# Assay: MHC binding assay (UV-ligand exchange, anti-β2m ELISA, peptide exchange yield)
# Details: binding to HLA-A*02:01
# How it was run: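 Peptide-MHC complexes formed by UV-ligand exchange, cleaving a UV-sensitive placeholder peptide in favour of the test peptide. Exchange yield measured by ELISA: monomers diluted 100-fold onto streptavidin-coated plates, 1 h 37 °C, detected with 2 ug/ml HRP anti-β2m and TMB, absorbance at 450 nm.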
row,Substance,"Peptide exchange (MHC class I binding score, peptide exchange yield)"
1,222 (NLIENVQRL; listed as Homo sapiens) [compound 222],“++” (>20% = ++)
2,264 (SLQEQLHSV; listed as Homo sapiens) [compound 264],“+++” (>50 = +++)
3,170 (RLQETLSAA; listed as Homo sapiens) [compound 170],“+++” (>50 = +++)
4,400 (SLLTEQDLWTV; listed as Homo sapiens) [compound 400],“++” (>20% = ++)
5,552 (GLLDLPFRVGV; listed as Homo sapiens) [compound 552],“+++” (>50 = +++)
6,440 (ALADGVTMQV; listed as Homo sapiens) [compound 440],“++” (>20% = ++)
7,550 (FLYDEIEAEVNL; listed as Homo sapiens) [compound 550],“+++” (>50 = +++)
8,24 (SLSDGLEEV; listed as Homo sapiens) [compound 24],“++” (>20% = ++)
9,227 (ALMNTLLYL; listed as Homo sapiens) [compound 227],“++” (>20% = ++)
10,397 (YLFGERLLEC; listed as Homo sapiens) [compound 397],“+++” (>50 = +++)
11,32 (KLDDLTQDLTV; listed as Homo sapiens) [compound 32],“++” (>20% = ++)
12,347 (SLFKHDPAAWEA; listed as Homo sapiens) [compound 347],“++++” (>75% = ++++)
13,30 (LILDWVPYI; listed as Homo sapiens) [compound 30],“+++” (>50 = +++)
14,269 (RVLEVGALQAV; listed as Homo sapiens) [compound 269],“++” (>20% = ++)
15,382 (ALQNYIKEA; listed as Homo sapiens) [compound 382],“++” (>20% = ++)
16,452 (ILLEHGADPNL; listed as Homo sapiens) [compound 452],“+++” (>50 = +++)
17,441 (ALLENPKMEL; listed as Homo sapiens) [compound 441],“+++” (>50 = +++)
18,571 (LLLTTIPQI; listed as Homo sapiens) [compound 571],“+++” (>50 = +++)
19,133 (KVLSNIHTV; listed as Homo sapiens) [compound 133],“++” (>20% = ++)
20,476 (ALMERTGYSMV; listed as Homo sapiens) [compound 476],“+++” (>50 = +++)
21,300 (ALLGQTFSL; listed as Homo sapiens) [compound 300],“+++” (>50 = +++)

row,Substance,"Peptide exchange (MHC class I binding score, peptide exchange yield)"
1,167 (KVLEVTEEFGV; listed as Homo sapiens) [compound 167],“+++” (>50 = +++)
2,229 (RLPGPLGTV; listed as Homo sapiens) [compound 229],“++” (>20% = ++)
3,288 (NLINEINGV; listed as Homo sapiens) [compound 288],“+++” (>50 = +++)
4,9 (GAAKDLPGV; listed as Homo sapiens) [compound 9],“++” (>20% = ++)
5,66 (FLDENIGGVAV; listed as Homo sapiens) [compound 66],“+++” (>50 = +++)
6,600 (ALAAPDIVPAL; listed as Homo sapiens) [compound 600],“+++” (>50 = +++)
7,321 (GLFEDVTQPGILL; listed as Homo sapiens) [compound 321],“++++” (>75% = ++++)
8,333 (FLPDANSSV; listed as Homo sapiens) [compound 333],“++” (>20% = ++)
9,398 (KLLEEDGTIITL; listed as Homo sapiens) [compound 398],“++” (>20% = ++)
10,380 (TLIEDEIATI; listed as Homo sapiens) [compound 380],“++” (>20% = ++)
11,121 (GVVDPRAISVL; listed as Homo sapiens) [compound 121],“++” (>20% = ++)
12,284 (ILLSQTTGV; listed as Homo sapiens) [compound 284],“+++” (>50 = +++)
13,261 (YVLEFLEEI; listed as Homo sapiens) [compound 261],“++” (>20% = ++)
14,617 (ALMYESEKVGV; listed as Homo sapiens) [compound 617],“+++” (>50 = +++)
15,343 (SLLEVNEESTV; listed as Homo sapiens) [compound 343],“+++” (>50 = +++)
16,34 (ILVEADSLWVV; listed as Homo sapiens) [compound 34],“+++” (>50 = +++)
17,396 (ALLPDLPAL; listed as Homo sapiens) [compound 396],“+++” (>50 = +++)
18,378 (ALGYFVPYV; listed as Homo sapiens) [compound 378],“+++” (>50 = +++)
19,107 (FLQPVDDTQHL; listed as Homo sapiens) [compound 107],“+++” (>50 = +++)
20,558 (GLLENIPRV; listed as Homo sapiens) [compound 558],“+++” (>50 = +++)
21,75 (GLLEVMVNL; listed as Homo sapiens) [compound 75],“+++” (>50 = +++)

row,Substance,"Peptide exchange (MHC class I binding score, peptide exchange yield)"
1,160 (FLFDEEIEQI; listed as Homo sapiens) [compound 160],“+++” (>50 = +++)
2,115 (AIAGAGILYGV; listed as Homo sapiens) [compound 115],“++” (>20% = ++)
3,194 (ALPLFVITV; listed as Homo sapiens) [compound 194],“+++” (>50 = +++)
4,493 (GLLGEKTQDLIGV; listed as Homo sapiens) [compound 493],“+++” (>50 = +++)
5,255 (VLASYNLTV; listed as Homo sapiens) [compound 255],“+++” (>50 = +++)
6,337 (HLLSELEAAPYL; listed as Homo sapiens) [compound 337],“++++” (>75% = ++++)
7,569 (KLVDRTWTL; listed as Homo sapiens) [compound 569],“+++” (>50 = +++)
8,219 (KLSDIGITV; listed as Homo sapiens) [compound 219],“+++” (>50 = +++)
9,567 (SLLPLDDIVRV; listed as Homo sapiens) [compound 567],“+++” (>50 = +++)
10,238 (YLISFQTHI; listed as Homo sapiens) [compound 238],“+++” (>50 = +++)
11,163 (ALDEMGDLLQL; listed as Homo sapiens) [compound 163],“+++” (>50 = +++)
12,165 (SLLDEIRAV; listed as Homo sapiens) [compound 165],“+++” (>50 = +++)
13,225 (SLLKVLPAL; listed as Homo sapiens) [compound 225],“+++” (>50 = +++)
14,500 (SLMEDQVLQL; listed as Homo sapiens) [compound 500],“+++” (>50 = +++)
15,372 (TMLLNIPLV; listed as Homo sapiens) [compound 372],“++” (>20% = ++)
16,477 (ALLPASGQIAL; listed as Homo sapiens) [compound 477],“+++” (>50 = +++)
17,495 (FIFSEKPVFV; listed as Homo sapiens) [compound 495],“+++” (>50 = +++)
18,436 (HLAEVSAEV; listed as Homo sapiens) [compound 436],“+++” (>50 = +++)
19,426 (RLADKSVLV; listed as Homo sapiens) [compound 426],“+++” (>50 = +++)
